Values of other authors in publication PMC11764136.

Biological target: amyloid-β oligomers Aβ (Homo sapiens) (UniProt P05067)

In the case of PrPC (from UniProt P04156), the Kd is given as 4 nM.
